T1: Flag-SkiW274E, full length (UniProt P12755 1-728, W274E)
T1 construct: plasmid pCMV5b-Flag-SkiW274E (from K. Luo); also called SkiW274E FL; SKI274E; source: HEK-293, transfected, in lysate
T1 sequence (looked up): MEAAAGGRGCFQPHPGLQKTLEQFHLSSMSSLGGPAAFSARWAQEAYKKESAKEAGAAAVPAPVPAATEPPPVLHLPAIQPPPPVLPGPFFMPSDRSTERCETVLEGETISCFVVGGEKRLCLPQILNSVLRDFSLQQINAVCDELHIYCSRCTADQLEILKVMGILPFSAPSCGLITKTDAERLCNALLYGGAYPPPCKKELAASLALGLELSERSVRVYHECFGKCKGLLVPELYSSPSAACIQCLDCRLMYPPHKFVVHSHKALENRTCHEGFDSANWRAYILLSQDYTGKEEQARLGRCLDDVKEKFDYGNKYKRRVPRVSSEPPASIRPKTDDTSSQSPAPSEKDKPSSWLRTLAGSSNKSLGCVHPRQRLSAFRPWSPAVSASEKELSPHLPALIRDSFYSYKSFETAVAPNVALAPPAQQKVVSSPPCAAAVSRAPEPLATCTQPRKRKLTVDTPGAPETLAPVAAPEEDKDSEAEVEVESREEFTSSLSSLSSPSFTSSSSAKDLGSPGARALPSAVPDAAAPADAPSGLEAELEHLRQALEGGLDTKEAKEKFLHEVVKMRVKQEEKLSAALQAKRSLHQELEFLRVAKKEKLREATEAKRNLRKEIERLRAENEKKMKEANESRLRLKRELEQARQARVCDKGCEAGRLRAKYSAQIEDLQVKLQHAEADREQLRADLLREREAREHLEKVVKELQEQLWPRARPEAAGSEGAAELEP

T2: SARA Smad-binding domain (amino acids 665–721) on the 3xFlag-thioredoxin scaffold (UniProt O95405 767-823)
T2 construct: SARA, amino acids 665–721; cloned into the unique RsrII site of pCI-3xFLAG-Trx; also called SARA aa665–721; TrxSARA; source: HEK-293, transfected, in lysate
T2 sequence (looked up): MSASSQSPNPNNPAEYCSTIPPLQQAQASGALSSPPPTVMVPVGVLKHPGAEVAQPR

T3: Ski Smad-binding domain (amino acids 2–56) on the 3xFlag-thioredoxin scaffold (UniProt P12755 2-56)
T3 construct: Ski, amino acids 2–56; cloned into the unique RsrII site of pCI-3xFLAG-Trx; also called Ski aa2–56; TrxSki; source: HEK-293, transfected, in lysate
T3 sequence (looked up): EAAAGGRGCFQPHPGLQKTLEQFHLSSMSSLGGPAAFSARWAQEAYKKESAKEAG

T4: Flag-Smad4, full length (UniProt Q13485 1-552)
T4 construct: Smad4; plasmid pCMV5-Flag-Smad4 (from J. Massagué); also called Smad4 FL; source: HEK-293, transfected, in lysate
T4 sequence (looked up): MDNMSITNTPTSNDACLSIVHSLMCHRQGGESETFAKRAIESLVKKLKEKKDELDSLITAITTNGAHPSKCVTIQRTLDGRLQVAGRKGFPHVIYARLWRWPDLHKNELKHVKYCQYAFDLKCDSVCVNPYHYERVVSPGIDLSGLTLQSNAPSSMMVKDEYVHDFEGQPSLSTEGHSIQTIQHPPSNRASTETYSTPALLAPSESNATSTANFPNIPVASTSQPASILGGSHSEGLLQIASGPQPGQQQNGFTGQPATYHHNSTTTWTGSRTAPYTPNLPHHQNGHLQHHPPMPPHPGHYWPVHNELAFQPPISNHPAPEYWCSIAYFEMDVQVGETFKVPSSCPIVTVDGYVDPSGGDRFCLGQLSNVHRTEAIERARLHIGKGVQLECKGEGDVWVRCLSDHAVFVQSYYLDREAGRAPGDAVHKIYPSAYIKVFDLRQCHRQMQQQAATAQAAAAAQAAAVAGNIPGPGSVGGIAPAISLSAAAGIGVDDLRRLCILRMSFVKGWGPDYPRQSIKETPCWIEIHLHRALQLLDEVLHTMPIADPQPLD


Legend:
Test in all cases: co-IP; LUMIER: Renilla luciferase-Smad3 and Flag-tagged partner co-expressed with constitutively active Alk5 in HEK-293; Flag protein captured from cleared lysate (TNE: 10 mM Tris-HCl pH 7.8, 150 mM NaCl, 1 mM EDTA, 1% Igepal CA-630) on anti-Flag 96-well plates, 2 h at 4 °C; co-precipitated Renilla luciferase activity, TrxGA background subtracted, percent of wild-type Smad3
Details in all cases: partners not purified
[1] = target: T1, Flag-SkiW274E, full length
[2] = target: T2, SARA Smad-binding domain (amino acids …)
[3] = target: T5, Smurf2 Smad-binding domain (amino acids 252–330) on the Flag-thioredoxin scaffold (UniProt Q9HAU4 252-330)
T5 construct: Smurf2, amino acids 252–330; also called Smurf2 aa252–330; TrxSmurf2; source: HEK-293, transfected, in lysate

[4] = target: T3, Ski Smad-binding domain (amino acids …)
[5] = target: T4, Flag-Smad4, full length

T5 sequence (Q9HAU4 252-330): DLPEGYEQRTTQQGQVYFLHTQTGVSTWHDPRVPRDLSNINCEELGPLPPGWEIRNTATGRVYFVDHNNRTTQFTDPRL

percent binding relative to wild-type Smad3 [1] [%] | percent binding relative to wild-type Smad3 [2] [%] | percent binding relative to wild-type Smad3 [3] [%] | percent binding relative to wild-type Smad3 [4] [%] | percent binding relative to wild-type Smad3 [5] [%] | Binder
31 |  |  |  |  | Renilla luciferase-Smad3 D408H (natural protein, UniProt P84022 1-425, looked up, Smad3; source: HEK-293, transfected together with constitutively active Alk5, in lysate) MSSILPFTPPIVKRLLGWKKGEQNGQEEKWCEKAVKSLVKKLKKTGQLDELEKAITTQNVNTKCITIPRSLDGRLQVSHRKGLPHVIYCRLWRWPDLHSHHELRAMELCEFAFNMKKDEVCVNPYHYQRVETPVLPPVLVPRHTEIPAEFPPLDDYSHSIPENTNFPAGIEPQSNIPETPPPGYLSEDGETSDHQMNHSMDAGSPNLSPNPMSPAHNNLDLQPVTYCEPAFWCSISYYELNQRVGETFHASQPSMTVDGFTDPSNSERFCLGLLSNVNRNAAVELTRRHIGRGVRLYYIGGEVFAECLSDSAIFVQSPNCNQRYGWHPATVCKIPPGCNLKIFNNQEFAALLAQSVNQGFEAVYQLTRMCTIRMSFVKGWGAEYRRQTVTSTPCWIELHLNGPLQWLHKVLTQMGSPSIRCSSVS
44 | 74 | 28 | 2 | 27 | Renilla luciferase-Smad3 Y238A (natural protein, UniProt P84022 1-425, looked up, Smad3; source: HEK-293, transfected together with constitutively active Alk5, in lysate) MSSILPFTPPIVKRLLGWKKGEQNGQEEKWCEKAVKSLVKKLKKTGQLDELEKAITTQNVNTKCITIPRSLDGRLQVSHRKGLPHVIYCRLWRWPDLHSHHELRAMELCEFAFNMKKDEVCVNPYHYQRVETPVLPPVLVPRHTEIPAEFPPLDDYSHSIPENTNFPAGIEPQSNIPETPPPGYLSEDGETSDHQMNHSMDAGSPNLSPNPMSPAHNNLDLQPVTYCEPAFWCSISYAELNQRVGETFHASQPSMTVDGFTDPSNSERFCLGLLSNVNRNAAVELTRRHIGRGVRLYYIGGEVFAECLSDSAIFVQSPNCNQRYGWHPATVCKIPPGCNLKIFNNQEFAALLAQSVNQGFEAVYQLTRMCTIRMSFVKGWGAEYRRQTVTSTPCWIELHLNGPLQWLDKVLTQMGSPSIRCSSVS
62 | 116 | 21 | 2 | 18 | Renilla luciferase-Smad3 R268A (natural protein, UniProt P84022 1-425, looked up, Smad3; source: HEK-293, transfected together with constitutively active Alk5, in lysate) MSSILPFTPPIVKRLLGWKKGEQNGQEEKWCEKAVKSLVKKLKKTGQLDELEKAITTQNVNTKCITIPRSLDGRLQVSHRKGLPHVIYCRLWRWPDLHSHHELRAMELCEFAFNMKKDEVCVNPYHYQRVETPVLPPVLVPRHTEIPAEFPPLDDYSHSIPENTNFPAGIEPQSNIPETPPPGYLSEDGETSDHQMNHSMDAGSPNLSPNPMSPAHNNLDLQPVTYCEPAFWCSISYYELNQRVGETFHASQPSMTVDGFTDPSNSEAFCLGLLSNVNRNAAVELTRRHIGRGVRLYYIGGEVFAECLSDSAIFVQSPNCNQRYGWHPATVCKIPPGCNLKIFNNQEFAALLAQSVNQGFEAVYQLTRMCTIRMSFVKGWGAEYRRQTVTSTPCWIELHLNGPLQWLDKVLTQMGSPSIRCSSVS
72 | 72 | 19 | 3 | 20 | Renilla luciferase-Smad3 R243A (natural protein, UniProt P84022 1-425, looked up, Smad3; source: HEK-293, transfected together with constitutively active Alk5, in lysate) MSSILPFTPPIVKRLLGWKKGEQNGQEEKWCEKAVKSLVKKLKKTGQLDELEKAITTQNVNTKCITIPRSLDGRLQVSHRKGLPHVIYCRLWRWPDLHSHHELRAMELCEFAFNMKKDEVCVNPYHYQRVETPVLPPVLVPRHTEIPAEFPPLDDYSHSIPENTNFPAGIEPQSNIPETPPPGYLSEDGETSDHQMNHSMDAGSPNLSPNPMSPAHNNLDLQPVTYCEPAFWCSISYYELNQAVGETFHASQPSMTVDGFTDPSNSERFCLGLLSNVNRNAAVELTRRHIGRGVRLYYIGGEVFAECLSDSAIFVQSPNCNQRYGWHPATVCKIPPGCNLKIFNNQEFAALLAQSVNQGFEAVYQLTRMCTIRMSFVKGWGAEYRRQTVTSTPCWIELHLNGPLQWLDKVLTQMGSPSIRCSSVS
59 | 78 | 31 | 4 | 49 | Renilla luciferase-Smad3 R292A (natural protein, UniProt P84022 1-425, looked up, Smad3; source: HEK-293, transfected together with constitutively active Alk5, in lysate) MSSILPFTPPIVKRLLGWKKGEQNGQEEKWCEKAVKSLVKKLKKTGQLDELEKAITTQNVNTKCITIPRSLDGRLQVSHRKGLPHVIYCRLWRWPDLHSHHELRAMELCEFAFNMKKDEVCVNPYHYQRVETPVLPPVLVPRHTEIPAEFPPLDDYSHSIPENTNFPAGIEPQSNIPETPPPGYLSEDGETSDHQMNHSMDAGSPNLSPNPMSPAHNNLDLQPVTYCEPAFWCSISYYELNQRVGETFHASQPSMTVDGFTDPSNSERFCLGLLSNVNRNAAVELTRRHIGAGVRLYYIGGEVFAECLSDSAIFVQSPNCNQRYGWHPATVCKIPPGCNLKIFNNQEFAALLAQSVNQGFEAVYQLTRMCTIRMSFVKGWGAEYRRQTVTSTPCWIELHLNGPLQWLDKVLTQMGSPSIRCSSVS
53 | 119 | 24 | 3 | 19 | Renilla luciferase-Smad3 Y384A (natural protein, UniProt P84022 1-425, looked up, Smad3; source: HEK-293, transfected together with constitutively active Alk5, in lysate) MSSILPFTPPIVKRLLGWKKGEQNGQEEKWCEKAVKSLVKKLKKTGQLDELEKAITTQNVNTKCITIPRSLDGRLQVSHRKGLPHVIYCRLWRWPDLHSHHELRAMELCEFAFNMKKDEVCVNPYHYQRVETPVLPPVLVPRHTEIPAEFPPLDDYSHSIPENTNFPAGIEPQSNIPETPPPGYLSEDGETSDHQMNHSMDAGSPNLSPNPMSPAHNNLDLQPVTYCEPAFWCSISYYELNQRVGETFHASQPSMTVDGFTDPSNSERFCLGLLSNVNRNAAVELTRRHIGRGVRLYYIGGEVFAECLSDSAIFVQSPNCNQRYGWHPATVCKIPPGCNLKIFNNQEFAALLAQSVNQGFEAVYQLTRMCTIRMSFVKGWGAEARRQTVTSTPCWIELHLNGPLQWLDKVLTQMGSPSIRCSSVS
